Data set [1] addresses T1, rgyr (reverse gyrase, full-length wild type) (Thermotoga maritima, UniProt O51934).
T1 sequence (O51934 1-1104): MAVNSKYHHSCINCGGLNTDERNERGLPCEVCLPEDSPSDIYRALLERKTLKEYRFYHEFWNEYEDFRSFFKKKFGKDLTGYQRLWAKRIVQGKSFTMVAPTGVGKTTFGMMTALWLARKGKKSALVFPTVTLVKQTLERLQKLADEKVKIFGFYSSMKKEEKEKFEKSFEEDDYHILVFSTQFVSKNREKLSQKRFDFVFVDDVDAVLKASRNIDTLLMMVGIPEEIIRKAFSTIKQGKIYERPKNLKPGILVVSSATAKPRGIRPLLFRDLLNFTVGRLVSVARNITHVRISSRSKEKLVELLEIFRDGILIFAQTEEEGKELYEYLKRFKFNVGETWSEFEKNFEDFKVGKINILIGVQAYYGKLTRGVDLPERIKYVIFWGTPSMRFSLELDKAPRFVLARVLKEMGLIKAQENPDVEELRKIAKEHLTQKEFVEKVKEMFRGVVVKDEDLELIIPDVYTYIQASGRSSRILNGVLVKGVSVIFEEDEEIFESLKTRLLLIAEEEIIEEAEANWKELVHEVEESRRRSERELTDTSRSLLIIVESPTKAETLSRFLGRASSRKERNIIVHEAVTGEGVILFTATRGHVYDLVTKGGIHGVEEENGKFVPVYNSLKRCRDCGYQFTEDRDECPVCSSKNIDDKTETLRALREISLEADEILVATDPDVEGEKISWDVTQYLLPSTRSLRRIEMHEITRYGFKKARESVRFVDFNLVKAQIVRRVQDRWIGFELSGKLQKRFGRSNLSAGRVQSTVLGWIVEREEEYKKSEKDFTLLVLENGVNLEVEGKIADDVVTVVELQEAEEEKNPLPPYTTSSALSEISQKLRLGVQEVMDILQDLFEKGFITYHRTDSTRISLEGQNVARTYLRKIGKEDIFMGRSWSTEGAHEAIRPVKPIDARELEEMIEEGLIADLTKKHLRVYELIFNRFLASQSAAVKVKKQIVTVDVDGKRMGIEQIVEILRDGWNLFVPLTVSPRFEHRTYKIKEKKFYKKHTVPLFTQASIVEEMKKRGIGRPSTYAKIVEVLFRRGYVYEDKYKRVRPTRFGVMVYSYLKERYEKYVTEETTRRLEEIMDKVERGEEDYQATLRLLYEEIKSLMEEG
As to the kind of experiment: fluorescence equilibrium titration. In kind it is binding.

Data set [2] deals with rgyr_Δlatch (reverse gyrase lacking the latch region) (Thermotoga maritima, UniProt O51934, DEL389-459/INS388G). As to the kind of experiment: biochemical.
Substrate in the data set “purified protein”: Nc1ncnc2c1ncn2[C@@H]1O[C@H](COP(=O)(O)OP(=O)(O)OP(=O)(O)O)[C@@H](O)[C@H]1O
Put plainly: purified protein. The following applies: no DNA, pH 7.5, 10 mM MgCl2, 0.15 M NaCl.

The target in a further data set is T2, isolated latch (H3) (Thermotoga maritima, UniProt O51934 388-459).
T2 sequence: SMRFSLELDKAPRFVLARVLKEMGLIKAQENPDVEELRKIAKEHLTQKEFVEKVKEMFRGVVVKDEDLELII
As to the kind of experiment: fluorescence anisotropy.

A further data set concerns the target T3, rgyr_hel_Δlatch (Thermotoga maritima, UniProt O51934 59-388+=G+460-541, internal_change).
T3 sequence: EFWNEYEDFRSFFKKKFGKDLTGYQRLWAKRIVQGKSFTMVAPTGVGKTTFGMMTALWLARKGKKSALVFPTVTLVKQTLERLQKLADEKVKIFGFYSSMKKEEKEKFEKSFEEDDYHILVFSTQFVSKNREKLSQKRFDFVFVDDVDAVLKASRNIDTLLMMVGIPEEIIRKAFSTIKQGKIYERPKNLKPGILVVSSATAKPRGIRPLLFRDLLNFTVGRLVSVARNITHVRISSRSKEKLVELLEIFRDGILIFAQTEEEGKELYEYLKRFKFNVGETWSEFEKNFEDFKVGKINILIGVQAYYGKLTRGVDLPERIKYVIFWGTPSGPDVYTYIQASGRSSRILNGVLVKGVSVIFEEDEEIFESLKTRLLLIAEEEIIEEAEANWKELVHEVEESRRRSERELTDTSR
As to the kind of experiment: fluorescence anisotropy. In general terms: Polarisation of emitted light reports the rotation of a fluorescent probe.

For data set [3], the target named is T4, rgyr_Δlatch (Thermotoga maritima, UniProt O51934 1-1104, del389-459).
T4 sequence: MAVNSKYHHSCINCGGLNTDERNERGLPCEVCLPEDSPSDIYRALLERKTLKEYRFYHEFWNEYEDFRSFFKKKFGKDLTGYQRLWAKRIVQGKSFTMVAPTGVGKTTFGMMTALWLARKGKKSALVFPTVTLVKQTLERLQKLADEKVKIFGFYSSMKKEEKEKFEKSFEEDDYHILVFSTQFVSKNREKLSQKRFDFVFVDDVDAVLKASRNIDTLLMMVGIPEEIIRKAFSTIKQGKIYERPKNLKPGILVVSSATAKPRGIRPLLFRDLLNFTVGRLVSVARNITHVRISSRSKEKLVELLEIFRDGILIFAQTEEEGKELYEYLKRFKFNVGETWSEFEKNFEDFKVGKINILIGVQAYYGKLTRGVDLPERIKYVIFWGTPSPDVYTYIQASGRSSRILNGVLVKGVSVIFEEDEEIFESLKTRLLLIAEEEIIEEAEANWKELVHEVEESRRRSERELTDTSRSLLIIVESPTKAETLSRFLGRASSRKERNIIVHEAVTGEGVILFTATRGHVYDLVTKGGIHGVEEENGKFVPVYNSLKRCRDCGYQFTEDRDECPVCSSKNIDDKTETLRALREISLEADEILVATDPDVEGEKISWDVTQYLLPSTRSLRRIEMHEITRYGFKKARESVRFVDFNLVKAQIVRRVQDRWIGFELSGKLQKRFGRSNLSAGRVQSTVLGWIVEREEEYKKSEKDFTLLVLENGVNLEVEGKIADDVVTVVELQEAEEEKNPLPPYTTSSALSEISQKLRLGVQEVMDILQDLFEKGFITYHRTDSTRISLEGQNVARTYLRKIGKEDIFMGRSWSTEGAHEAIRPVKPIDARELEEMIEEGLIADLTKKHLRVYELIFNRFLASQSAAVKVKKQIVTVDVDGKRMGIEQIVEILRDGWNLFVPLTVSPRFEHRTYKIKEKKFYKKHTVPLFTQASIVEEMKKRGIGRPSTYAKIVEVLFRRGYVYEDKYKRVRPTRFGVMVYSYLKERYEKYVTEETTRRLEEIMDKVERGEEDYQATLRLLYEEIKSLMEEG
Put plainly: fluorescence anisotropy.

For data set [4], the target named is T4, rgyr_Δlatch. Put plainly: fluorescence anisotropy. This is another data set of the same source.

Five molecules from publication PMC3061058 (Nucleic Acids Research, 2010) can be followed below.

Where two headings read alike, the source gives them in different places.

As a reminder, the Kd is the concentration at which binding is half-saturated. On to `Nc1ncnc2c1ncn2[C@@H]1O[C@H](COP(=O)(O)OP(=O)(O)NP(=O)(O)O)[C@@H](O)[C@H]1O` [ADPNP], for which the dissociation constant (Kd) came to 10 ± 0.8 µM in data set [1] and 4.7 ± 0.8 µM in data set [2].

B1: rgyr_hel_Δlatch (helicase-like domain lacking the latch) (Thermotoga maritima MSB8; DEL389-459/INS388G) (protein)
chain: T3 sequence
Usually Km stands for the substrate concentration at which the rate is half of its maximum. By kcat is commonly meant the number of substrate molecules converted per active site and unit of time at saturation. For the molecule B1, in “purified protein”, the Michaelis constant (Km) is listed as 67 ± 18 µM and the kcat was determined as 0.02 s⁻¹.

B2: rgyr_Δlatch (reverse gyrase lacking the latch region) (Thermotoga maritima MSB8; DEL389-459/INS388G) (protein)
chain: MAVNSKYHHSCINCGGLNTDERNERGLPCEVCLPEDSPSDIYRALLERKTLKEYRFYHEFWNEYEDFRSFFKKKFGKDLTGYQRLWAKRIVQGKSFTMVAPTGVGKTTFGMMTALWLARKGKKSALVFPTVTLVKQTLERLQKLADEKVKIFGFYSSMKKEEKEKFEKSFEEDDYHILVFSTQFVSKNREKLSQKRFDFVFVDDVDAVLKASRNIDTLLMMVGIPEEIIRKAFSTIKQGKIYERPKNLKPGILVVSSATAKPRGIRPLLFRDLLNFTVGRLVSVARNITHVRISSRSKEKLVELLEIFRDGILIFAQTEEEGKELYEYLKRFKFNVGETWSEFEKNFEDFKVGKINILIGVQAYYGKLTRGVDLPERIKYVIFWGTPSGPDVYTYIQASGRSSRILNGVLVKGVSVIFEEDEEIFESLKTRLLLIAEEEIIEEAEANWKELVHEVEESRRRSERELTDTSRSLLIIVESPTKAETLSRFLGRASSRKERNIIVHEAVTGEGVILFTATRGHVYDLVTKGGIHGVEEENGKFVPVYNSLKRCRDCGYQFTEDRDECPVCSSKNIDDKTETLRALREISLEADEILVATDPDVEGEKISWDVTQYLLPSTRSLRRIEMHEITRYGFKKARESVRFVDFNLVKAQIVRRVQDRWIGFELSGKLQKRFGRSNLSAGRVQSTVLGWIVEREEEYKKSEKDFTLLVLENGVNLEVEGKIADDVVTVVELQEAEEEKNPLPPYTTSSALSEISQKLRLGVQEVMDILQDLFEKGFITYHRTDSTRISLEGQNVARTYLRKIGKEDIFMGRSWSTEGAHEAIRPVKPIDARELEEMIEEGLIADLTKKHLRVYELIFNRFLASQSAAVKVKKQIVTVDVDGKRMGIEQIVEILRDGWNLFVPLTVSPRFEHRTYKIKEKKFYKKHTVPLFTQASIVEEMKKRGIGRPSTYAKIVEVLFRRGYVYEDKYKRVRPTRFGVMVYSYLKERYEKYVTEETTRRLEEIMDKVERGEEDYQATLRLLYEEIKSLMEEG
With B2, in the data set “purified protein”, the Km is 26.5 ± 3.5 µM and the kcat came to 0.018 s⁻¹.

B3: 60 b ssDNA (ssDNA)
DNA: AAGCCAAGCTTCTAGAGTCAGCCCGTGATATTCATTACTTCTTATCCTAGGATCCCCGTT
Consider B3, for which the results for the Kd with isolated latch (H3), with rgyr_hel_Δlatch and in the data set with rgyr_Δlatch [3] were 64 ± 29 µM, 0.42 ± 0.07 µM and 0.033 ± 0.077 µM, respectively.

B4: 60 bp dsDNA (dsDNA)
DNA 1: B3 DNA
DNA 2: AACGGGGATCCTAGGATAAGAAGTAATGAATATCACGGGCTGACTCTAGAAGCTTGGCTT
Turning to B4, the Kd is 0.096 ± 0.019 µM with rgyr_Δlatch [4], 78 ± 39 µM with isolated latch (H3) and 21 ± 5 µM with rgyr_hel_Δlatch.
